Experiment [1] addresses PrpS1-GFP fusion protein expressed in Arabidopsis thaliana pollen (line BG16) (Papaver rhoeas). As to the kind of experiment: cell-based or functional assay.
Experiment [2] addresses PrpS8 (Papaver rhoeas pollen S8 protein) on P. rhoeas pollen (Papaver rhoeas). As to the kind of experiment: cell-based or functional assay.

In experiment [1], “recombinant Papaver rhoeas pistil S1 protein (PrsS1) (ligand)” yielded a pollen germination of BG16 Arabidopsis pollen, in vitro SI assay of 50 % reduction; a pollen viability (Evans blue) at t=2 h, BG16+PrsS1 against WT+S1 pollen of 35 times lower; a pollen viability (Evans blue) at t=4 h, BG16+PrsS1 against WT+S1 pollen of 53 times lower; a pollen viability (Evans blue) at t>8 h, BG16+PrsS1 against WT+S1 pollen of 45 times lower.

As for “recombinant Papaver rhoeas pistil S8 protein (PrsS8) (ligand)”, the % germination of P. rhoeas S1S8 pollen with both PrsS1 and PrsS8 added (29.7% with S1 alone) in experiment [2] was determined as 1%.

These data come from patent publication US20110265202A1.
